{"source": "patent US20080194611", "molecular_target": "S1P3 receptor (UniProt Q99500)", "sequence (Q99500 whole entry)": "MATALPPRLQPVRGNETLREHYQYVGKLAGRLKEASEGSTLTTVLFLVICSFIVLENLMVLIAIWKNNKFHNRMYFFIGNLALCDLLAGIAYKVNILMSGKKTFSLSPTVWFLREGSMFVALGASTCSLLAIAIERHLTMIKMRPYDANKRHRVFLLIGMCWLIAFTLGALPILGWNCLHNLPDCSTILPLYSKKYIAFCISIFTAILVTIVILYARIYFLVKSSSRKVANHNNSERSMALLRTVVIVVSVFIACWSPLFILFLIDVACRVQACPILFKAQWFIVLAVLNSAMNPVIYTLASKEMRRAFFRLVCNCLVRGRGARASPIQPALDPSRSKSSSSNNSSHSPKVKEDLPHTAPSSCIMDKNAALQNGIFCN", "data": [{"substance": "recombinant active Src", "values": [{"measurement": "in vitro tyrosine phosphorylation of isolated S1P3 receptor (immunoblot)", "value": "Src tyrosine phosphorylation of the S1P3 receptor"}]}]}
